Molecular target: T1, human BTLA (B and T lymphocyte attenuator), BTLA isoform 1 precursor (Homo sapiens) (human, UniProt Q7Z6A9 31-289)
T1 construct: BTLA was presented on CD3+ T cells of PBMC, on COS cells transfected with human BTLA in p3xFlag-myc-CMV25 (this construct may carry tags; not described), and on L-BTLA fibroblasts stably transfected with human BTLA; also called CD272
Experiment: flow cytometry on CD3+ T cells among PBMC, 0.01-10 ug/ml
Protocol: T cells (CD3+) among PBMC were stained for BTLA with the anti BTLA mAbs at various concentration (from 0.01 μg/ml to 10μ,g/ml). […] Then COS transfected with human BTLA were incubated with the anti BTLA mAbs and then with HVEM-Fc before staining with an anti human IgG Fc PE. The percentage of inhibition was determined as 100-maximum of percentage of stained cells. […] The median fluorescence intensity of cells was determined. […] On the other hand, 7.1 and 8.2 antibodies were not able to compete against 4C7 mAb at a high dose (FIG. 3). […] Finally, γδT were obtained after a positive sorting of fresh purified PBMC and stained for Cell Trace Violet to follow the proliferation. Cells were incubated 5 days in IL2/Zometa with the different mAbs prior to analysis by flow cytometry. The addition of antibodies in the culture of the γδT lead to an upregulation of their proliferation. Cells incubated with the HVEM 18.10 mAb disclosed in WO2014184360 is able to proliferate more than cells incubated with the mock control (IgG1) (FIG. 4).

B1: 629.3 mAb (antibody, V domains shown)
VH: QVQLRESGPGLVAPSQSLSITCTVSGFSLNTYGVSWVRQPPGKGLEWLGVVWGDGNTNYHSVVISRLTINKDNSKSQVFLKLNSLQTDDTATYYCAKCYGSRFDYAMDYWGQGTSVTVSS
VL: DIVMSQSPSSLAVSIGEQVTMSCKSSQSLLSSRTRKNYLAWYQQRPGQSPKLLIYWASTRESGVPDRFTGSGSGTDFTLTISSVQAEDLAVYYCKQSYNLPTFGGGTRLEIK
notes: Mouse monoclonal antibody, detected with anti-mouse IgG
B1: binds.

Source: US20230183346A1 (INSERM INSTITUT NATIONAL DE LA SANTE ET DE LA RECHERCHE …, published 2023)
